Legend:
human CXCR2 [1] = biological target: T1, human CXCR2 (human, UniProt P25025 1-360); experiment: FACS, CXCR2 CHO Flp-In cells, IgG
T1 construct: Expressed on Flp-In CHO cells (FACS, Fab-ZAP, ADCC, CDC) or on bought PathHunter CHO cells (beta-arrestin assay); the construct in the PathHunter cells is not described; also called chemokine receptor CXCR2; CXCR2 CHO Flp-In cells
T1 sequence: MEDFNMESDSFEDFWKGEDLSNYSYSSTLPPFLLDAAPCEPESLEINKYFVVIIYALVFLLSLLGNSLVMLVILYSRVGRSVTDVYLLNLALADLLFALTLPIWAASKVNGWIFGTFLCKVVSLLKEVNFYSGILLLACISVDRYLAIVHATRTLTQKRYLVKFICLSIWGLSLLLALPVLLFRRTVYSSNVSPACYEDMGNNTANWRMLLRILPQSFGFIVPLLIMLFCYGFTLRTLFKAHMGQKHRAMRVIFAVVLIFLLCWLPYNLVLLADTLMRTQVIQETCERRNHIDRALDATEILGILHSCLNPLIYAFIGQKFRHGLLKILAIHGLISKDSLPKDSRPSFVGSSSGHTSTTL
Method: (§1) Human CXCR2-expressing Flp-In™ CHO cells were harvested at ˜80% confluence washed once with PBS (Gibco, Cat #14190-094) and detached using Versene (Invitrogen, Cat #15040-033). Subsequently, cells were counted and centrifuged at 250×g for 5 min at 4° C. Afterwards, cells were diluted in Superblock (Thermo Fisher Perbio Science, Cat #37515) to a cell concentration of 2E+05-1E+06/mL and 100 μL/well were transferred to 96-well microtiter plate (Nunc, Cat#163320). Cells were once centrifuged, supernatant discarded and antibodies added at 1 μg/mL (unless stated otherwise), incubated for 1 h at 4° C. and washed twice with FACS buffer (PBS/3% FCS/0.02% NaN3). Binding of anti-CXCR2 antibodies was detected by incubation of Phycoerythrin-conjugated anti-human IgG (Dianova, Cat #109-116-097) for 1 h at 4° C. Samples were subsequently measured using FACS Array (Becton Dickinson).

[2] = biological target: T2, hu_CXCR2_N-term (1-17)-BSA (human; bovine, coupled to carrier protein BSA; C-terminal cysteine introduced to enable coupling); experiment: ELISA, coated peptide-BSA, IgG
T2 construct: Synthetic linear peptide chemically coupled to the carrier; also called CXCR2_aa1-17_BSA; CXCR2 aa1-17 BSA
T2 sequence (P02769 25-607 limits assumed): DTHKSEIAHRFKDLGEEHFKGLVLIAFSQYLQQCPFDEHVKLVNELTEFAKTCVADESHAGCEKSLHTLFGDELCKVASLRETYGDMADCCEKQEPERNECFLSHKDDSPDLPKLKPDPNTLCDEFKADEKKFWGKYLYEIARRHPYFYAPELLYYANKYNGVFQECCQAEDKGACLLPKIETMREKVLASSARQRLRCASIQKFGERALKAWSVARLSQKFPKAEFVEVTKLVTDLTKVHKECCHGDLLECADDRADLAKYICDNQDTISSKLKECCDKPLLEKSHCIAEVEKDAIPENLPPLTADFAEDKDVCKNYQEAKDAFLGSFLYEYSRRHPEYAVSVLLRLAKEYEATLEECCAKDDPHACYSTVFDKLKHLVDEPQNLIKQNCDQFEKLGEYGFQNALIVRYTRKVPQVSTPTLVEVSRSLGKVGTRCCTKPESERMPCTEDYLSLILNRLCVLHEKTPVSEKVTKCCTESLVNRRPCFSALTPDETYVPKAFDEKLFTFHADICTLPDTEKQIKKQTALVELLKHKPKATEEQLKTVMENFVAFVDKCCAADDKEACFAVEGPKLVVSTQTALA
Method: (§2) 384-well Maxisorp plates (Nunc; Cat. #460518) were coated with respective CXCR2 and control peptides coupled either to BSA or Transferrin (TRF) at 1-5 μg/mL and incubated o/n at 4° C. […] After three washing steps, antibodies were added at 5-10 μg/mL and titrated in some experiments. Antibodies were incubated 1 h at room temperature and plates were subsequently washed. Binding of anti-CXCR2 antibodies was detected by using alkaline phosphatase-conjugated anti-human IgG, (Dianova, Cat #109-055-097). AttoPhos fluorescence substrate (Roche, Cat #1484281) was added according to instructions of the manufacturer and fluorescence was measured (excitation at 430 nm, emission at 535 nm) using a microplate reader.

[3] = biological target: T3, ECL3 peptide aa273-295, BSA-coupled (human; bovine, coupled to carrier protein BSA; C-terminal cysteine introduced to enable coupling); experiment: ELISA, coated peptide-BSA, IgG
T3 construct: also called CXCR2 aa273-295 BSA; peptides representing the extracellular domain 3
Method: as §2
Target sequence in this assay (peptide, as listed by the source limits assumed, chain 1 of 2): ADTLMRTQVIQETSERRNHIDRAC
Target sequence in this assay (P02769 25-607 limits assumed, chain 2 of 2): as the sequence (P02769 25-607 limits assumed) above

[4] = biological target: T4, N-terminal peptide aa1-48, BSA-coupled (human; bovine, coupled to carrier protein BSA; C-terminal cysteine introduced to enable coupling); experiment: ELISA, coated peptide-BSA, IgG
T4 construct: also called CXCR2 aa1-48 BSA
T4 sequence (P02769 25-607 limits assumed): as above
Method: as §2

[5] = biological target: T2, hu_CXCR2_N-term (1-17)-BSA; experiment: ELISA, coated peptide-BSA, IgG1
Method: as §2

[6] = biological target: T3, ECL3 peptide aa273-295, BSA-coupled; experiment: ELISA, coated peptide-BSA, IgG1
Method: as §2

[7] = biological target: T4, N-terminal peptide aa1-48, BSA-coupled; experiment: ELISA, coated peptide-BSA, IgG1
Method: as §2

human CXCR2 [8] = biological target: T1, human CXCR2; experiment: FACS, CXCR2 CHO Flp-In cells, IgG1
Method: as §1

Measured: binding result

B1: CX2-Mab #7 (antibody, IgG1, V domains shown)
VH: QVQLLESGGGLVQPGGSLRLSCAASGFTFSRYWMSWVRQAPGKGLEWVSVISYSGSETYYADSVKGRFTISRDNSKNTLYLQMNSLRAEDTAVYYCARGRAYGYFDPWGQGTLVTVSS
VL: DIVLTQPPSVSGAPGQRVTISCSGSSSNIGKKTVSWYQQLPGTAPKLLIYRNNQRPSGVPDRFSGSKSGTSASLAITGLQAEDEADYYCQSTDSTTEIVFGGGTKLTVLG
binds: human CXCR2 [1] | [2] | [3] | [4]

B2: CX2-Mab #1.5 (antibody, IgG1, V domains shown)
VH: QVQLVQSGAEVKKPGSSVKVSCKASGGTFSSYAISWVRQAPGQGLEWMGGIIPIVGEAKYAQKFQGRVTITADESTSTAYMELSSLRSEDTAVYYCARDSSGYDGYYAFAYWGQGTQVTVSS
VL: DIVLTQPPSVSGAPGQRGTISCSGSSSNIGSSSVNWYQQLPGTAPKLLIYRNNQRPSGVPDRFSGSKSGTSASLAITGLQAEDEADYYCASTDSQWRQIVFGGGTKLTVLG
binds: [5] | [6] | [7] | human CXCR2 [8]

B3: CX2-Mab #1.2 (antibody, IgG1, V domains shown)
VH: B2 VH
VL: DIVLTQPPSVSGAPGQRGTISCSGSSSNIGSSSVNWYQQLPGTAPKLLIYRNNQRPSGVPDRFSGSKSGTSASLAITGLQAEDEADYYCATADQRGIVFGGGTKLTVLG
binds: [5] | [6] | [7] | human CXCR2 [8]

B4: CX2-Mab #8 (antibody, IgG1, V domains shown)
VH: QVQLVQSGAEVKKPGESLKISCKGSGYSFTNYWIAWVRQMPGKGLEWMGIIDPSNSDTRYSPSFQGQVTISADKSISTAYLQWSSLKASDTAMYYCARGRYYGFFDYWGQGTLVTVSS
VL: DIVLTQPPSVSGAPGQRVTISCSGSSSNIGSTYVSWYQQLPGTAPKLLIYRNNNRPSGVPDRFSGSKSGTSASLAITGLQAEDEADYYCQVRALGTSSVVFGGGTKLTVLG
binds: human CXCR2 [1] | [2] | [3] | [4]

From patent publication US20160060347A1 (MorphoSys, published 2016)
